Test: soluble on expression in E. coli; label from the status in PepcDB or PDB records

Sequence	soluble on expression in E. coli
MSRLEAWAYLSRVFEGPSRSLQKLLETESDVEKIAWGIKKREAWLGPILFETASRYSVSLEQEDLTTIKNLGGRLVTPDDDEWPREKFETAFGFAASGTSSLVRSYQSDAVAPHALWVRGAPLSTTVDRSVAIVGTRAMSHYGKSATSMLAAGIADHHWTIVSGGALGVDTVAHTEALQRQKPTVAVCARGLDAPYPRKNAELLRSIVETGCLVSEYAPGLTPHRHRFLTRNRLVAALSQGTVVVEAAWRSGALNTLSWASALGRVAMAVPGPVTNTGSLGCHERIRNKEAELVCSAEEILALVGTLGEFDPNGQYELQFAADPIQSLSRNEMRVFDSLDANPHTTDTVAAAAGIPIGLCVHILRDLEKKQLVMREGAHWHRC	not soluble
MGHHHHHHHHHHSSGHIEGRHMLGLGASDFEFGVDPSADPELALALRVSMEEQRQRQEEEARRAAAASAAEAGIATTGTEDSDDALLKMTISQQEFGRTGLPDLSSMTEEEQIAYAMQMSLQGAEFGQAESA	soluble
MGSDKIHHHHHHFACKEETDLYFNGDITVIKSFDNDTLLSPVKVELEDIYDGSVLAYDSLLFFTSHKYSDCWMYVFSVNSGKHIASLCPKGQGPNDYLSCKNSQQFIRENGELKLWVRDNAKSARLLNITKSIETGATVCDAIIPMDWNKYFVYPATTLFFLKDGYILGQNQCEEQYSKGKEYIPRKFYLYKDSLGNKVKEYKLFNRPVILKDDKYDVLSGMFYANHSYIHPDQTKVAIAMQRVAQITILDVKSGKQVGYRMDDTLDFSDIEQNLECIRYYYTSAAVNSRYIFALYIDQAEMGGKYPFKSKTVHVFNWEGRPVYKIQLDKEISWITLDPQNNRLYAQGEDDSIWAYDVSWLSK	not soluble
DGYHLLQELGAIELAGDGEAAEAGGGGAAFRLTRTGQELAKLPVDPRIGRMILAAREQQCLAEMLIIAAALSVQDPRDRPMAEREAAESAHAKFADDKSEFLSFL	not soluble
MNRQPIVQLSNLSWTFREGETRRQVLDHITFDFEPGEFVALLGQSGSGKSTLLNLISGIEKPTTGDVTINGFAITQKTERDRTLFRRDQIGIVFQFFNLIPTLTVLENITLPQELAGVSQRKAAVVARDLLEKVGMADRERTFPDKLSGGEQQRVAISRALAHNPMLVLADEPTGNLDSDTGDKVLDVLLDLTRQAGKTLIMATHSPSMTQHADRVVNLQGGRLIPAVNRENQTDQPASTILLPTSYE	not soluble
VIGADVPRDSQRARVYAAEAFVRTLFDRVTAHGSPTVEFFGTQLTLPPEGRFGSVASVQRYVDDVLALPAVGQNWPTVSPVRVRARRAATAAHYENHGGTGTIAVPDRHTAGWAMRELVVLHEVAHHLCQVPPPHGPEFVATVCTLTELVMGPEVGHVFRVVYAQEGVR	soluble
MAHHHHHHMDTPEREVSPPPAEEDENKKRVIIILEGAHLQLIETKRYIYELANIMKHKHLLRDQKNEEEMRNFRPDILHQCLIHLLESALNKYGLLQVYIKTHDNQLFYVSSHLKIPKTYDQFESLMVTFLRKYKIKANEKNLCLLKFLKNDYSAILPINGKKIGLSVKGKKVHFSEYVQNLQNEDVPVTFFIGAVAYSNPITKLENLDDNICISEFSLSAATCCSTICSEFENLLGLF	soluble
MTTAVARLQPSASGAKTRPVFPFSAIVGQEDMKLALLLTAVDPGIGGVLVFGDRGTGKSTAVRALAALLPEIEAVEGCPVSSPNVEMIPDWATVLSTNVIRKPTPVVDLPLGVSEDRVVGALDIERAISKGEKAFEPGLLARANRGYLYIDECNLLEDHIVDLLLDVAQSGENVVERDGLSIRHPARFVLVGSGNPEEGDLRPQLLDRFGLSVEVLSPRDVETRVEVIRRRDTYDADPKAFLEEWRPKDMDIRNQILEARERLPKVEAPNTALYDCAALCIALGSDGLRGELTLLRSARALAALEGATAVGRDHLKRVATMALSHRLRRDPLDEAGSTARVARTVEETLP	soluble
MLPHTGLFLLGKVALQMRIRRRLKQGVIMAKTNNKPETAETAAPSFEDIKAELDAVQAELAAARNDVEMLTTALEKAEDDKKALSAELAELKVQHTQRAADALADSRDVMLVSTGADGKEFWRGGLLFDGGWREVKRAEVGEAVWKAICAEPMLQRKAVE	not soluble
SSTKVPIYLKRGSRKGKKEKLRDLLSSDMISPPLGDFRHTIHIGSGGGDDMFGDISFLQGKFHLLPGTAVEEAEEDGSFDLPFQFTRTTTVCGRELPDGLSPLLKNAISLPVIGGPQALTLPTAQAPPKPPRLHLESPQPSPQPSPQGAGNVDVWRIPEAGSPHNGMSPEPEAEEPFLSHASSLLSLHVDLGPSILDDVLQIMDHDLGRVQIPT	soluble
MGSDKIHHHHHHMTHDDVIQAIVNTIRDVPGIRALFLSGSYGNGLADEYSDIDFVLVSEDGATDAVAEAWRNAVEKTGEIVLWWDRTTVPVLINAITEDWTRTDVIILKPDQMGRQTKDALKPLFDHDNIYDTLKDAAPKPGPDLKRFRYEVEEFIRILGLLQLAVGREEYINGVLGVSLLRSKLVNLLIEETDAPNRGGILHLNRLITEDQKQVLISLPPAVPERDAMISAHLAYAAAYLPRARRRAERLGMEWPERFEAVTWSRLEKTLSIRRPYD	not soluble
MSDETDWYGPEAATFGDRLAAAREASGMTQAQLARRLGVKKATINGWEDDLSEPRANRLSMLAGLLNVSIVWLITGEGQGGEALNETDETARDMAALLTELRSLRADLQASGQRAARLEKQLRQIMEHSA	not soluble
MQRVTITLDDDLLETLDSLSQRRGYNNRSEAIRDILRGALAQEATQEHGTQGFAVLSYVYEHEKRDLASRIVSTQHHHHDLSVATLHVHINHDDCLEIAVLKGDMGDVQHFADDVIAQRGVRHGHLQCLPKED	not soluble
MIEIKQVKTQDEVNYTFVEKLMHTAFPQEERRDTVQQREYSDNNPRFCNNIILENGNSIGMISYWTMGDFYYIEHFAIDPSLRNGGYGKRVLEMIKKQLKGPIVLEVEEPNDEMSTRRIHFYKRLEFTLHKKPYIQPPYRKGDSGLPMLLMTYGDIDMESDFEKVKKTLYKEVYGQEI	not soluble
MSLPFITKISTQKKNTERFNIFLDDKYAFSVDADVLVKFELKKGKELDDLDIIEIQYGDEVKKGFNRALDFLSYRMRSTKEVEDHLKKKETSPPVIAEVIHRLNDYKYLNDQEFAAAYVSTHKKTNGKGPDVLFRELRAKGIDDDTIKEALSSFSFEDQTREAVKHVEKLLKKDKKLSTKELKQRAQLQLQRKGFSFDVISAAMDQIEYENDEDTEKEALRLHAEKAFRKYRYDGSYESAMKVKQFLFRKGFSLDLIEQLLQEEEYEGHHHHHH	soluble
MGSDKIHHHHHHMTSADNILAHASAMRQFSQFAGVAGLDLRRACPPDVYAFVEQAQDAEWLPATAHVDVLQAAAIASGRADLGVAFAMWCNIRGFGPVSLLWDHCTTVDEASRITRRYMHLESAAMRSSTDTDGHEAALRHILMVPARFGGSQFLQATLALQLRIIRMLLGEEWTPIRLELDHPAPPSYRYHQAVFRCPIEFEADRCALVFRKSDLHRPSLRGNANMVQYLERQLAHADSHWPGDLVQQIRYFVAANLTERKANLAHVSGLAGLSSQSLQRRLAERGTTFATILEEVRKQTADEYFRTARRPNLTELSHRLGYTDASAASRFLRQHMSTGARALMAQVRPGRGRPGSARALAAEA	not soluble
MGSDKIHHHHHHMNSSQVLDVKRVLAVLEEQVFQSTGRYLTEVEKVLIKGVWDSKDYKEMASDSGYNAYYLQQKVAPPLWSMLSVIIGDGVKVTKISLKSILLKLAKSDYRKEEASRLDNDSFVGNIRIHGELPKIKSFYGRKDEINYFKKQITLFKERCIVFTGVGGIGKTLLASRLVEEITFDSLSSIYECIIWKTINHSLSIDELVIDLNKIFQVDIEASENSFIDSISLLSKQLHLHRCLLVIDGFEKLLLADDFGKRLQYEKFLLKLTEGKHESCIIITSQLPLKEFASVTTKLPIRSFKLEGLDVNAGMQILQEKGLTGQECKRLIENYSGNPSSLEALADRINRFFEGSVKTFFRYQTTMIDPQLETMLHQQFGQIGLLSNLQRQIMIYLAEEMSENSTPIQFSKLIDNLKERVDFKLSVFELITAIEVLEQRSLIEIAGKSNKREASYSLQVSIKKYILVDPLGLVHKIPDTIQTREVTLWATA	not soluble
MVIVGGQDRSISTRQGAAMTDTPPPETDAAPEVPGAAPGKTLTPAARRALEEAAARRAAEAALSLPPEEGGRDGPEPTRFGDWEKKGVAVDFLEHHHHHH	not soluble
MSLTEPRIVATYHIASDAERIEQRALALAIEQSVECPLEAIGDPAIVANIVGRVEDVAELQPGRYAVRIGLAAATAPAEPGQLLNMLFGNSSIQPDIALADVELPAHYLTAFGGPRVGLAGIRTLTGAQSRALTASALKPQGLSPAALASIAHQLALGGVDLIKDDHGLADQAFSPFAERAAAVGKAVREANAARGGRTLYAPNISGTLDDMRRQLGVIRDEGIGAVLVAPMIVGVSNFHAIVKEAAGLVVVAHPAMAGAAKIAAPLLLGRLFRLFGADATVFPNYGGRFAYSTASCLALAQAARDPFGKLNACIPTPAGGIMLQRVNELLRFYGQDVMLLIGGSLLASRERLTEQASRFVNKVADYGQREGHHHHHH	soluble
MEINTIIGNNLKKIRQEKKLTLDELAGITGVSKGMLSQIEKGTTNPTINTIWKISNGLNVPYTYLLEDDYVKENPVVKKTETVTQHSEDHSYRVFNYYSDNQERNFELFQFELDPGKKYQAVGHSKRSTEYVMVIQGALALEVGGQRYLLPKDAAMYFDANQVHTYINDGTEKVQAVVINYYT	not soluble
MTALGLIETKGLLAAVEAADAMLKAADVRLLEKNLASGGLVTITVAGEVSAVRAAVDAGVSAIRRVNAASLVSEHVIARPDEGVSRVVSLVPPAAVPPAAPPVQAPAGDSGAQQPVQEAAEAEPQTGSTVEEQTPAAVEASPAPAAAAPRTETVRYEISQLKKMNVSRLRQVARGVSGLSIPREAVKSANKKDLIDAIINSYRQIEE	not soluble
AKVATGTDILSAASNVSLQKARTWDEGVESKFSTTPVNDIFKDKKVVIFGLPGAYTGVCSSKHVPPYKHNIDKFKAKGVDSVICVAINDPYTVNAWAEKIQAKDAIEFYGDFDGSFHKSLELTTDLSAGLLGIRSERWSAYVVDGKVKALNVEESPSDVKVSGAETILGQI	soluble
MAELRSFIFIDRLQPQTMSYLGTWIKGALPRANMAAQIIEVAPGLDIEGVTDVALKHAEVKAGILVVERQFGYLEFHGETGAVKAAADAALDYLGGDPDAAVRPEILASRIISSIDHQHAFLINRNKIGSMVLPGESLFVLEVAPASYAILATNEAEKAADVKVVDFRMIGATGRVYLSGTEADVRQAADAARDALAVLQGA	soluble
MTYSIVAISGSPSRNSTTAKLAEYALAHVLARSDSQGRHIHVIDLDPKALLRGDLSNAKLKEAVDATCNADGLIVATPIYKASYTGLLKAFLDILPQFALAGKAALPLATGGSPAHVLALDYGLRPVLHSMGVRHVVQSFFLVQSQFSVVDGKLAVEDDVASQLNNAIDHFRLSLSSEPSTRHLGHPRPSLDATRAA	soluble
MKKTLATLFLLTCLGSSSAYADNALILQTDFSLKDGAVSAMKGVAFGVDHNLKIFDLTHEIPPYNIWEGAYRLYQTASYWPQGSVFVSVVDPGVGTDRKSIVLKTKNGQYFVSPDNGTLTLVAESLGIESVREIDEKANRLKGSEKSYTFHGRDVYAYTGARLASGAITFEQVGPELPAKVVELSYQKAKATKGEVKGNIPILDIQYGNVWSNISDELLNQAGIKLNDTLCVTISEGSRQKYAGKMPYVASFGDVPEGQPMVYLNSLLNVSVALNMDNFAQKHQVASGADWNIDVKKCDK	not soluble
